Measurements reported in the supplement of paper PMC7877785.
± gives the uncertainty stated by the source.

Test: self-splicing fitness, log relative to wild type (ln ratio); higher = more splicing; Tetrahymena group I intron in knt gene, E. coli kanamycin selection, DiMSum; sequences stand for … in CUCUCU…GGAGGGAAAAGUUAUCAGGCAUGCACCUGGUAGCUAGUCUUUAAACCAAUAGAUUGCAUCGGUUUAAAAGGCAAGACCGUCAAAUUGCGGGAAAGGGGUCAACAGCCGUUCAGUACCAAGUCUCAGGGGAAACUUUGAGAUGGCCUUGCAAAGGGUAUGGUAAUAAGCUGACGGACAUGGUCCUAACCACGCAGCCAAGUCCUAAGUCAACAGAUCUUCUGUUGAUAUGGAUGCAGUUCACAGACUAAAUGUCGGUCGGGGAAGAUGUAUUCUUCUCAUAAGAUAUAGUCGGACCUCUCCUUAAUGGGAGCUAGCGGAUGAAGUGAUGCAACACUGGAGCCGCUGGGAACUAAUUUGUAUGCGAAAGUAUAUUGAUUAGUUUUGGAGUACUCGUGGUCG
In short: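 The eight P1ex-region nucleotides of an intron in the knt kanamycin-resistance gene on pET-22b(+) were all randomised and the library put into E. coli BL21(DE3). Six replicate transformations were grown overnight at 37°C or 30°C on LB agar with or without 25 μg/mL kanamycin, together with 100 μg/mL carbenicillin, 50 μM IPTG and 0.2% rhamnose. Colonies were pooled and amplicon-sequenced on an Illumina HiSeq 2500. Fitness from DiMSum is the error-weighted combination of wild-type-normalised replicate fold changes, kanamycin over none.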

Sequence	self-splicing fitness (ln) (30 °C)	self-splicing fitness (ln) (37 °C)
UACCAGCAAUAUUACGCUAG	-1.76 ± 0.074	-1.03 ± 0.083
UACCAGCAAUAUUACGCUCG	-0.415 ± 0.093	-0.203 ± 0.11
UACCAGCAAUAUUACGGACU	-0.102 ± 0.073	0.199 ± 0.098
UACCAGCAAUAUUACGGAGU	-3.23 ± 0.13	-2.4 ± 0.17
UACCAGCAAUAUUACGGCGU	-0.619 ± 0.055	-0.341 ± 0.072
UACCAGCAAUAUUACGGUAG	-2.15 ± 0.086	-1.16 ± 0.083
UACCAGCAAUAUUACGGUCU	-0.501 ± 0.056	0.24 ± 0.067
UACCAGCAAUAUUACGUACG	-0.42 ± 0.12	-0.594 ± 0.15
UACCAGCAAUAUUACGUCCA	-0.321 ± 0.081	0.176 ± 0.091
UACCAGCAAUAUUACGUCUU	-1.99 ± 0.08	-0.209 ± 0.086
UACCAGCAAUAUUACGUGGG	-3.76 ± 0.11	-2.52 ± 0.1
UACGAGCAAUAUUACGAACA	-2.11 ± 0.27	-2.13 ± 0.29
UACGAGCAAUAUUACGAAUA	-3.28 ± 0.47	-2.87 ± 0.48
UACGAGCAAUAUUACGAAUG	-2.56 ± 0.12	-1.68 ± 0.15
UACGAGCAAUAUUACGACGU	-2.08 ± 0.23	-2.12 ± 0.27
UACGAGCAAUAUUACGAGAA	-2.33 ± 0.35	
UACGAGCAAUAUUACGAUGC		-2.04 ± 0.33
UACGAGCAAUAUUACGCACA	-3.08 ± 0.26	-1.29 ± 0.21
UACGAGCAAUAUUACGCAUA	-3.17 ± 0.19	-0.975 ± 0.13
UACGAGCAAUAUUACGCCUC		-2.06 ± 0.34
UACGAGCAAUAUUACGCUAU	-2.4 ± 0.14	-3.49 ± 0.29
UACGAGCAAUAUUACGCUUC	-2.53 ± 0.25	-1.32 ± 0.3
UACGAGCAAUAUUACGGCGA	-1.39 ± 0.15	-0.508 ± 0.15
UACGAGCAAUAUUACGGGAG	-3.43 ± 0.22	-2.72 ± 0.39
UACGAGCAAUAUUACGGGUC	-3.23 ± 0.26	-3.06 ± 0.43

Sequence	self-splicing fitness (ln) (30 °C)	self-splicing fitness (ln) (37 °C)
UACGAGCAAUAUUACGGUCG	-0.828 ± 0.076	-0.0425 ± 0.099
UACGAGCAAUAUUACGUAAA	-3.61 ± 0.29	-2.84 ± 0.26
UACGAGCAAUAUUACGUAUG	-3.49 ± 0.23	-3.34 ± 0.24
UACGAGCAAUAUUACGUCAA		-2.31 ± 0.46
UACGAGCAAUAUUACGUGGG	-3.25 ± 0.14	-2.88 ± 0.19
UACGAGCAAUAUUACGUUGU	-3.36 ± 0.16	-2.68 ± 0.18
UACUAGCAAUAUUACGAAAC		-2.1 ± 0.32
UACUAGCAAUAUUACGAAGA	-2.32 ± 0.19	-1.86 ± 0.25
UACUAGCAAUAUUACGAAUC	-2.81 ± 0.18	-3.38 ± 0.35
UACUAGCAAUAUUACGACCA	0.122 ± 0.088	-0.816 ± 0.1
UACUAGCAAUAUUACGAGGU	-3.47 ± 0.42	-2 ± 0.29
UACUAGCAAUAUUACGAUAG	-1.44 ± 0.12	-0.923 ± 0.14
UACUAGCAAUAUUACGAUCU	-1.31 ± 0.13	-0.847 ± 0.14
UACUAGCAAUAUUACGAUUU	-2.36 ± 0.12	-0.92 ± 0.15
UACUAGCAAUAUUACGCCAA	0.284 ± 0.44	-1.02 ± 0.25
UACUAGCAAUAUUACGGACC		-1.13 ± 0.33
UACUAGCAAUAUUACGGCAA	-0.353 ± 0.12	0.301 ± 0.12
UACUAGCAAUAUUACGGGAA	-1.95 ± 0.13	-0.547 ± 0.1
UACUAGCAAUAUUACGGGCC	-3.27 ± 0.17	-3.17 ± 0.23
UACUAGCAAUAUUACGGUCA	0.103 ± 0.086	0.31 ± 0.083
UACUAGCAAUAUUACGGUGU	-3.74 ± 0.23	-2.65 ± 0.29
UACUAGCAAUAUUACGUAAU	-2.63 ± 0.17	-1.93 ± 0.22
UACUAGCAAUAUUACGUAGA	-1.84 ± 0.11	-1.95 ± 0.16
UACUAGCAAUAUUACGUGUU	-3.16 ± 0.15	-0.975 ± 0.13
UACUAGCAAUAUUACGUUAA	-2.1 ± 0.18	-1.43 ± 0.18

Sequence	self-splicing fitness (ln) (30 °C)	self-splicing fitness (ln) (37 °C)
UAGAAGCAAUAUUACGAUAA	-1.05 ± 0.11	-0.854 ± 0.12
UAGAAGCAAUAUUACGAUUG	-1.74 ± 0.07	-0.442 ± 0.083
UAGAAGCAAUAUUACGCAAA	-1.24 ± 0.22	-1.03 ± 0.31
UAGAAGCAAUAUUACGCCGG	-0.817 ± 0.12	-0.196 ± 0.18
UAGAAGCAAUAUUACGCUUG	-2.11 ± 0.11	-1.05 ± 0.12
UAGAAGCAAUAUUACGGAAG	-2.16 ± 0.22	-0.543 ± 0.23
UAGAAGCAAUAUUACGGCAA	-0.122 ± 0.075	-0.249 ± 0.088
UAGAAGCAAUAUUACGGGCG	0.0568 ± 0.11	-0.38 ± 0.13
UAGAAGCAAUAUUACGGGUC	-3.55 ± 0.33	-2.84 ± 0.44
UAGAAGCAAUAUUACGGUUA	0.144 ± 0.094	-0.007 ± 0.086
UAGAAGCAAUAUUACGUACU	-1.22 ± 0.1	-0.355 ± 0.14
UAGAAGCAAUAUUACGUCCG	0.777 ± 0.14	-0.199 ± 0.16
UAGAAGCAAUAUUACGUCUG	-1.12 ± 0.064	-0.959 ± 0.076
UAGAAGCAAUAUUACGUGAC	-3.33 ± 0.24	-2.28 ± 0.28
UAGAAGCAAUAUUACGUGCC	-2.13 ± 0.22	-0.962 ± 0.19
UAGAAGCAAUAUUACGUGUA	-1.95 ± 0.11	-0.392 ± 0.09
UAGAAGCAAUAUUACGUUUU	-3.58 ± 0.17	-2.85 ± 0.18
UAGCAGCAAUAUUACGAACA	-0.591 ± 0.069	0.237 ± 0.081
UAGCAGCAAUAUUACGAGCC	-2.62 ± 0.23	-1.9 ± 0.3
UAGCAGCAAUAUUACGAGGG	-1.97 ± 0.21	-1.96 ± 0.27
UAGCAGCAAUAUUACGAGUA	-1.39 ± 0.14	-0.225 ± 0.14
UAGCAGCAAUAUUACGAUUG	-0.536 ± 0.12	-0.509 ± 0.14
UAGCAGCAAUAUUACGCAGU	-3.58 ± 0.47	-2.18 ± 0.21
UAGCAGCAAUAUUACGCCUC	-3.28 ± 0.16	-1.11 ± 0.12
UAGCAGCAAUAUUACGCGGC	-3.84 ± 0.22	-1.6 ± 0.21

Sequence	self-splicing fitness (ln) (30 °C)	self-splicing fitness (ln) (37 °C)
UAGCAGCAAUAUUACGCUUC	-3.05 ± 0.34	-2.25 ± 0.33
UAGCAGCAAUAUUACGGAAU	-3.87 ± 0.44	-2.13 ± 0.33
UAGCAGCAAUAUUACGGACA	-0.821 ± 0.11	-0.11 ± 0.13
UAGCAGCAAUAUUACGGCGA	-0.238 ± 0.077	0.939 ± 0.1
UAGCAGCAAUAUUACGGCUG	-3.72 ± 0.35	-2.64 ± 0.28
UAGCAGCAAUAUUACGGGCA	-0.608 ± 0.11	-0.41 ± 0.1
UAGCAGCAAUAUUACGGUUG	-1.17 ± 0.092	-0.442 ± 0.12
UAGCAGCAAUAUUACGUAGC	-3.58 ± 0.44	-2.78 ± 0.38
UAGCAGCAAUAUUACGUCCA	-0.794 ± 0.11	-0.187 ± 0.11
UAGCAGCAAUAUUACGUCUA	-0.114 ± 0.073	0.146 ± 0.084
UAGCAGCAAUAUUACGUCUU	-1.07 ± 0.071	-0.289 ± 0.085
UAGCAGCAAUAUUACGUUGU	-3.72 ± 0.21	-3.08 ± 0.26
UAGGAGCAAUAUUACGAACG	-0.534 ± 0.12	-0.578 ± 0.19
UAGGAGCAAUAUUACGACCA	-1.68 ± 0.13	-0.415 ± 0.19
UAGGAGCAAUAUUACGACUC	-2.01 ± 0.28	
UAGGAGCAAUAUUACGACUG	-0.384 ± 0.096	0.363 ± 0.14
UAGGAGCAAUAUUACGAGAA	-3.23 ± 0.44	-2.68 ± 0.42
UAGGAGCAAUAUUACGCAUU	-3.91 ± 0.35	-2.42 ± 0.42
UAGGAGCAAUAUUACGCGAU	-3.84 ± 0.47	-2.68 ± 0.34
UAGGAGCAAUAUUACGCGUC	-2.98 ± 0.28	-2.22 ± 0.29
UAGGAGCAAUAUUACGGCAG	-3.1 ± 0.37	-0.425 ± 0.25
UAGGAGCAAUAUUACGGGAG	-2.69 ± 0.27	-2.96 ± 0.36
